In patent US11053313B2, “Anti-CLDN-5 antibody, and drug containing said antibody” (OSAKA UNIVERSITY, priority 2017, dated 2021):
Entries after “also recorded” stand apart in the source; their conditions may differ.

Assays:
hCLDN-5 [1] = test: Epitope analysis by hCLDN-5/hCLDN-1 chimeric CLDN (FACS), loop assignment; type: binding, human; conditions: antibody concentration 5 μg/mL, hCLDN-5/hCLDN-1 chimeras
[2] = tested on: blood-brain barrier simulation system; test: Material permeability of blood-brain barrier simulation system (monkey BBB kit); type: cell-based; conditions: 12 hours after addition, FIG. 13
ZO-1 = ZO-1 localization by immunostaining in blood-brain barrier simulation system; type: cell-based; conditions: monkey BBB kit, 12 hours after addition, FIG. 14
mCLDN-5 = target: T1, mCLDN-5 (Mus musculus, UniProt O54942); test: Evaluation of CLDN specificity by FACS, mCLDN-5-expressing cells; type: binding; conditions: hybridoma culture supernatant as primary antibody, FIG. 1B
T1 construct: expressed in transfected cells; host or cells: retrovirus-infected cells
T1 sequence (O54942 1-218): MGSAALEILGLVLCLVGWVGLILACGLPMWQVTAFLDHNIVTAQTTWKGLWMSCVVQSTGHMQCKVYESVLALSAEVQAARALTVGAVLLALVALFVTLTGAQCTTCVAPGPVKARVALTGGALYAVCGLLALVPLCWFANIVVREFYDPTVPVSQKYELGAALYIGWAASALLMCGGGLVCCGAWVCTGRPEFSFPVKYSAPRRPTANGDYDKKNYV

MDCKII/hCLDN-5 = test: TEER of CLDN-5 compulsory expression system, MDCKII/hCLDN-5; type: cell-based, human; conditions: MDCKII/hCLDN-5, FIG. 7B
1-1-5 = target: T2, 1-1-5 (Homo sapiens, UniProt O00501, A34S/A72N/D37G/E76T/F35Y/G26A/H38D/H61Q/K48E/L36A/M29Q/M62I/Q31R/T33Y/T45A/T46M/T75S/V32I/V56S/V70L/W47Y/Y67F); test: Epitope analysis FACS, chimeric protein 1-1-5; type: binding; conditions: antibody concentration 5 μg/mL; first extracellular loop substituted with hCLDN-1
T2 construct: expressed in transfected cells; host or cells: retrovirus-infected cells (pCX4pur)
T2 sequence (O00501 1-218 G26A/M29Q/Q31R/V32I/T33Y/A34S/F35Y/L36A/D37G/H38D/T45A/T46M/W47Y/K48E/V56S/H61Q/M62I/Y67F/V70L/A72N/T75S/E76T): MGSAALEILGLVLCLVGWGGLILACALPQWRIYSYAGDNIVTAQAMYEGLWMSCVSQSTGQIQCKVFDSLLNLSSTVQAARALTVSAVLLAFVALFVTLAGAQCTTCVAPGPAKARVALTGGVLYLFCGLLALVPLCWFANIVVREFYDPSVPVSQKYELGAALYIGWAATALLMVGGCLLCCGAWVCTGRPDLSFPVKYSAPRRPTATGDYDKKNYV

hCLDN-5 [3] = test: Epitope analysis by hCLDN-5/mCLDN-5 chimeric CLDN (D68E, T75A, S151T, TM; FACS); type: binding, human; conditions: antibody concentration 5 μg/mL, mutants D68E
CLDN-5 = CLDN-5 localization by immunostaining in blood-brain barrier simulation system; type: cell-based; conditions: monkey BBB kit, 12 hours after addition, FIG. 14
5-5-1 = target: T3, 5-5-1 (Homo sapiens, UniProt O00501, A162Q/K157R/L160F/Q156A/S151M/S155N/V152T); test: Epitope analysis FACS, chimeric protein 5-5-1; type: binding; conditions: antibody concentration 5 μg/mL; second extracellular loop substituted with hCLDN-1
T3 construct: expressed in transfected cells; host or cells: retrovirus-infected cells (pCX4pur)
T3 sequence (O00501 1-218 S151M/V152T/S155N/Q156A/K157R/L160F/A162Q): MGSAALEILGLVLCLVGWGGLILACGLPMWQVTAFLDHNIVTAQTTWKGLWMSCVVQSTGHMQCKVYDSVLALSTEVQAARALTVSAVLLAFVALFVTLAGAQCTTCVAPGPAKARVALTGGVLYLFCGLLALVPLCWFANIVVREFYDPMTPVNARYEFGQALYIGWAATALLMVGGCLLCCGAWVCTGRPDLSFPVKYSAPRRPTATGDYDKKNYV

1-5-5 = target: T4, 1-5-5 (Homo sapiens, UniProt O00501, A34S/D37G/F35Y/G26A/H38D/K48E/L36A/M29Q/Q31R/T33Y/T45A/T46M/V32I/W47Y); test: Epitope analysis FACS, chimeric protein 1-5-5; type: binding; conditions: antibody concentration 5 μg/mL; N-terminal half of first extracellular loop substituted with hCLDN-1
T4 construct: expressed in transfected cells; host or cells: retrovirus-infected cells (pCX4pur)
T4 sequence (O00501 1-218 G26A/M29Q/Q31R/V32I/T33Y/A34S/F35Y/L36A/D37G/H38D/T45A/T46M/W47Y/K48E): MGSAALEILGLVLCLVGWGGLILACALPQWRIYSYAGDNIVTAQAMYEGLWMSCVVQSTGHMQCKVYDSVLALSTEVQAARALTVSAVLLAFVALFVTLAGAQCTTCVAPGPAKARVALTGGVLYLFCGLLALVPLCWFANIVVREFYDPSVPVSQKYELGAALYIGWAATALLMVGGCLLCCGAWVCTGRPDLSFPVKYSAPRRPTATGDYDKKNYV

hCLDN-5 [4] = target: T5, hCLDN-5 (Homo sapiens, UniProt O00501); test: Western blotting operability, HT-1080/hCLDN-5 lysate; type: binding; conditions: SDS-PAGE under reducing condition, antibody concentration 10 μg/mL, FIG. 5
T5 construct: expressed in transfected cells; host or cells: HT-1080 human fibrosarcoma cells infected with a pCX4pur-derived retrovirus (HT-1080/hCLDN-5)
T5 sequence (O00501 1-218): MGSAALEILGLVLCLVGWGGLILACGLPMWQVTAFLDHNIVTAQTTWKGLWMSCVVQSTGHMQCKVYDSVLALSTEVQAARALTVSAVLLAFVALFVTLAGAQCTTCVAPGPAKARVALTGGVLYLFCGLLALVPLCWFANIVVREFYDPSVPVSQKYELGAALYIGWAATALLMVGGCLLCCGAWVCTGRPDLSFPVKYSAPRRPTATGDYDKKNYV
Procedure: FIG. 5 illustrates western blotting images showing the CLDN-5 primary structure recognizability of the anti-CLDN-5 antibodies obtained in Example 3-6). The primary antibodies used are shown at the top of the images, and the used cells are shown under the primary antibodies. The names of proteins represented by bands are shown on the left side of the images.
Cell lysates were prepared from HT-1080/mock and HT-1080/hCLDN-5 obtained in Example 1-2), and the lysates were separated by SDS-PAGE under a reducing condition. By using the antibodies (antibody concentration: 10 μg/mL) obtained in Example 1 as primary antibodies, western blotting was performed according to the conventional method. As primary antibodies, commercial monoclonal antibodies (4C3C2, Invitrogen, 35-2500) recognizing the C-terminal of CLDN-5 were used as positive control, and β actin antibodies (Sigma Aldrich, A1978) were used as loading control. The results are illustrated in FIG. 5.

B1: M48: mouse anti-CLDN-5 monoclonal antibody, IgG3/K; VH SEQ ID NO: 9, VL SEQ ID NO: 10; example of antibody E (antibody, V domains shown)
VH: QAYLQQSGAELVRPGASVKMSCKASGYTFTSYNMHWVKKTRRQGLEWIGAISPGNGNTSYNQKFKGKATLTVDKSSSTAYMQLSSLTSEDSAVYFCARDDGYYGALDYWGQGTSVTVSS
VL: DIVLTQSPATLSVTPGESVSLSCRASQGISTSIHWYQQKSNESPRLLIRYASQSISRIPSRFSGSGSGTDFTLTINGVESEDLSVYYCQQSYNLPLTFGSGTKLEI
modifications: M48 VH; M48 VL
- extracellular loop of CLDN-5 recognized (hCLDN-5 [1]): second extracellular loop
- 4 kDa FITC-dextran permeability of the blood-brain barrier simulation system [2]: exhibited an activity of improving
- localization properties of ZO-1 (ZO-1): did not change
- binding capacity to mCLDN-5 (mCLDN-5): extremely low
- reduction in TEER (MDCKII/hCLDN-5): greatly reducing TEER
- recognition of 1-1-5 (1-1-5): capable of recognizing
- portion of hCLDN-5 recognized (hCLDN-5 [3]): domain around the 151st amino acid from the N-terminal present in the second extracellular loop
- localization properties of CLDN-5 in the intercellular space (CLDN-5): reduced
- recognition of 5-5-1 (5-5-1): incapable of recognizing

B2: R2: rat anti-CLDN-5 monoclonal antibody, IgG2a/K; VH SEQ ID NO: 11, VL SEQ ID NO: 12; example of antibody F (antibody, V domains shown)
VH: QVQLKESGPGLVQPSQTLSLTCTVSGLSLIRNSVSWIRQPPGKGLEWMGVIWSNGGTEYNSTVKSRLSISRDTSKNQVFLKMNSLQTEDSAMFFCARTPDGYYPYFDYWGQGVMVTVSS
VL: DIVLTQSPATLSVTPGESVSLSCRASQGISTSIHWYQQKSNESPRLLIRYASQSISRIPSRFSGSGSGTDFTLTINGVESEDLSVYYCQQSYNLPLTFGSGTKLEI
modifications: R2 VH; R2 VL
- extracellular loop of CLDN-5 recognized (hCLDN-5 [1]): first extracellular loop
- recognition of 1-1-5 (1-1-5): incapable of recognizing
- portion of hCLDN-5 recognized (hCLDN-5 [3]): domain around the 68th amino acid from the N-terminal present in the first extracellular loop
- recognition of 1-5-5 (1-5-5): capable of recognizing
- recognition of 5-5-1 (5-5-1): capable of recognizing

B3: M11: mouse anti-CLDN-5 monoclonal antibody, IgG2b/K; VH SEQ ID NO: 3, VL SEQ ID NO: 4; example of antibody B (antibody, V domains shown)
VH: QVQLKQSGPGLVQPSQSLSITCTVSGFSLIRYGVHWVRQSPGKGLEWLGVKWSGGSTDYNGAFKSRLSISKDNSKSQVFFKMNSLQADDTAIYYCARGLDGYYVPDVWGTGTSVTVS
VL: DIVMTQSHKFMSTSVGDRVSITCKASQDVSTNVAWYQQKPGQSPTLLIYWASTRHTGVPDRFTGSGSGTDYTLTISSVQAEDLALYYCQQHYSTPLTFGAGTKLELRR
modifications: M11 VH; M11 VL
- extracellular loop of CLDN-5 recognized (hCLDN-5 [1]): first extracellular loop
- recognition of 1-1-5 (1-1-5): incapable of recognizing
- portion of hCLDN-5 recognized (hCLDN-5 [3]): domain around the 68th amino acid from the N-terminal present in the first extracellular loop
- recognition of 1-5-5 (1-5-5): incapable of recognizing
- recognition of 5-5-1 (5-5-1): capable of recognizing

B4: R14: rat anti-CLDN-5 monoclonal antibody, IgG2a/K; VH SEQ ID NO: 21, VL SEQ ID NO: 22; example of antibody K (antibody, V domains shown)
VH: QVTLKESGPGILQPSHTLSLTCSFSGFSLSTYGMGVSWIRQPSGKGLEWLASIWWNGRTYTNPSLMSRLTVSKDTSTNQAFLRVTSVETADTATYYCAHTPYDYSNLGWFTYWGQGTLVTVSS
VL: DILMTQTPSSQAVSAGEKVTVSCKSSQSLLYSGDQKSYLAWYQQKPGQSPKLLIYLASTRKSGVPDRFIGSGSGTDFTLTISSVQAEDLADYYCQQHYTYPLTFGSGTKLEI
modifications: R14 VH; R14 VL
- extracellular loop of CLDN-5 recognized (hCLDN-5 [1]): second extracellular loop
- recognition of 1-1-5 (1-1-5): capable of recognizing
- portion of hCLDN-5 recognized (hCLDN-5 [3]): three-dimensional structure created by the transmembrane domain of hCLDN-5; also recorded: domain around the 151st amino acid from the N-terminal present in the second extracellular loop
- recognition of 5-5-1 (5-5-1): incapable of recognizing
- recognition of linear peptide (western blotting operability) (hCLDN-5 [4]): weakly recognized

B5: M23: mouse anti-CLDN-5 monoclonal antibody, IgG2b/K; VH SEQ ID NO: 5, VL SEQ ID NO: 6; example of antibody C (antibody, V domains shown)
VH: EVQLQQSGPVLVKPGPSVMISCKASGFTFTDYYMHWVKQSHGKSLEWIGLVYPYNGGTDYNQKFKGKATLTVDTSSSTAYMELNSLTSEDSAVYYCARCLYDGLYFYAMDYWGQGTSVTVSS
VL: DIVMSQSPSSLAVSAGEKVTMTCKSSQSLLNSRARKNYLAWYQQKAGQSPKLLMYWASTRESGVPDRFTASGSGTDFTLTISSVQAEDLAVFYCKQSYNLPWTFGGGTKLEIKR
modifications: M23 VH; M23 VL
- extracellular loop of CLDN-5 recognized (hCLDN-5 [1]): second extracellular loop
- recognition of 1-1-5 (1-1-5): capable of recognizing
- portion of hCLDN-5 recognized (hCLDN-5 [3]): domain around the 151st amino acid from the N-terminal present in the second extracellular loop
- recognition of 5-5-1 (5-5-1): incapable of recognizing

B6: R3: rat anti-CLDN-5 monoclonal antibody, IgG2a/K; VH SEQ ID NO: 13, VL SEQ ID NO: 14; example of antibody G (antibody, V domains shown)
VH: EVQLVESGGGLVQPGRSLKLSCAASGFTFSDYYMAWVRQAPKKGLEWVASISYEGRNTYYGDSVKGRFTISRDNAKSTLYLQMKSLRSEDTATYYCTRHPRRYFDYWGQGVMVTVSS
VL: DIVMTQSPSSLAVSAGETVTMNCRSSQSLFSSGDQKKFLAWYQQKPGQSPKLLISLASTRESGVPDRFIGSGSGTDFTLTINNMQAEDLAIYYCQQHYDIPYTFGAGTKLEL
modifications: R3 VH; R3 VL
- extracellular loop of CLDN-5 recognized (hCLDN-5 [1]): second extracellular loop
- recognition of 1-1-5 (1-1-5): capable of recognizing
- portion of hCLDN-5 recognized (hCLDN-5 [3]): domain around the 151st amino acid from the N-terminal present in the second extracellular loop
- recognition of 5-5-1 (5-5-1): incapable of recognizing
